System: Glyphosate-sensitive Palmer amaranth (A. palmeri R-22) plants
Experiment: Palmer amaranth pre-treated with PDS trigger oligonucleotides, then norflurazon
Assay type: in vivo, Amaranthus palmeri
Details: mixture of oligonucleotides incl. SEQ ID NO: 2137 at 0.8 nmol, 0.5% Silwet L-77; norflurazon 675 g ai/ha 24 and 48 h later; compared with norflurazon alone
Experimental: Glyphosate-sensitive Palmer amaranth (A. palmeri R-22) plants were grown in the greenhouse (30/20 C day/night T; 14 hour photoperiod) in 4 inch square pots containing Sun Gro® Redi-Earth and 3.5 kg/cubic meter Osmocote® 14-14-14 fertilizer. Palmer amaranth plants at 5 to 10 cm in height were pre-treated with a mixture of oligonucleotides one of which was a SEQ ID NO: 2137 at 0.8 nmol comprising at least one oligonucleotide targeting PDS coding or noncoding regions, formulated in 10 millimolar sodium phosphate buffer (pH 6.8) containing 2% ammonium sulfate and 0.5% Silwet L-77. Plants were treated manually by pipetting 10 μL of polynucleotide solution on four fully expanded mature leaves, for a total of 40 microliters of solution per plant. Twenty-four and forty-eight hours later, the plants were treated with norflurazon (Solicam®, Syngenta, Greensboro, N.C.) at 675 g ai/ha, crop oil concentrate (COC) at 1% is added to the herbicide treatments. Four replications of each treatment was conducted. Plant height is determined just before ssDNA treatment and at intervals upto twelve days after herbicide treatments to determine effect of the oligonucleotide and herbicide treatments.

B1: SEQ ID NO: 2137: ssDNA trigger oligonucleotide targeting PDS, one of a mixture applied to Palmer amaranth before norflurazon (nucleic acid, listed as Amaranthus palmeri)
antisense: ACCGAUUCCUGCAGGAGAAACAUGGUUCUAAGAUGGCCUUCCUAGACGGAAACCCUCCAGAGAGGCUGUGCAUGCCUAUUGUUAAACACAUCGAGUCACUAGGUGGUGAAGUUAAACUUAACUCUCGUAUACAAAAGAUUCAGUUGGACCAGAGUGGAAGCGUGAAGAGUUUUUUGCUAAAUAACGGGAGG
For B1, the “injury to the plants (FIG. 1)” value was “more injury to the plants than the norflurazon alone”.

Source: patent publication US10808249B2, “Methods and compositions for weed control” (Monsanto Technology LLC, priority 2011, dated 2020)
